One block for each binder: values may come before it.
How the values were obtained:
[1] = molecular target: T1, biotinylated 10-mer C-terminal PBM peptide of DGKζ (human, UniProt Q13574, biotin attached to the N-terminus via a trioxatridecan-succinamic acid (ttds) linker); experiment: nHU-MS, printed as pKapp 5.01
[2] = molecular target: T1, biotinylated 10-mer C-terminal PBM …; experiment: nHU-MS, printed as pKapp 4.98
[3] = molecular target: T1, biotinylated 10-mer C-terminal PBM …; experiment: nHU-MS, printed as pKapp 5.71
[4] = molecular target: T1, biotinylated 10-mer C-terminal PBM …; experiment: nHU-MS, printed as pKapp 4.96

T1 sequence (Q13574 whole entry, looked up, tested part not stated): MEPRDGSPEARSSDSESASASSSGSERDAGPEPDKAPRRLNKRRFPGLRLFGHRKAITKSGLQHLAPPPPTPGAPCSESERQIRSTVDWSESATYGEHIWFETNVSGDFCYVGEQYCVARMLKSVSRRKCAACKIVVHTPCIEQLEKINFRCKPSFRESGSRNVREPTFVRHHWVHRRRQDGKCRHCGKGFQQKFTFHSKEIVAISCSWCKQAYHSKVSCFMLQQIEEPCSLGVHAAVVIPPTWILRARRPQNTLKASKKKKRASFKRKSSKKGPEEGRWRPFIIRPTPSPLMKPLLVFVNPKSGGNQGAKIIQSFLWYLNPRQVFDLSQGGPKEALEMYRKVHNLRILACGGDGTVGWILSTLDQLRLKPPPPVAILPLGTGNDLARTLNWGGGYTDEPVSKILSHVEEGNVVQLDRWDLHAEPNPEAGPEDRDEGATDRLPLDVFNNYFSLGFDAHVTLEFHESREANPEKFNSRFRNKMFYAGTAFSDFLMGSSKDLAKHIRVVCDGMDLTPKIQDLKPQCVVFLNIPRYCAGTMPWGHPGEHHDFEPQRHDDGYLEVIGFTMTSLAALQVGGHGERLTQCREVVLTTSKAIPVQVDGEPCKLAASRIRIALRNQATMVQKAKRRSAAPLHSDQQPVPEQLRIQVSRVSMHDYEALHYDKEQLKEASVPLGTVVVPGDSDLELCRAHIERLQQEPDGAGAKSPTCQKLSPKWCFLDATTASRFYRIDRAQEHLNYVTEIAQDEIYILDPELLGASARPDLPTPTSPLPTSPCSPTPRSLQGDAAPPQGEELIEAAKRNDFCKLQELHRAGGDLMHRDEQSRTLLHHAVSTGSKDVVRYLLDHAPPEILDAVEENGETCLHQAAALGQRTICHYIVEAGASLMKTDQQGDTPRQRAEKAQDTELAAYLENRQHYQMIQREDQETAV

Kd [1]: 9.77 µM
B1: LIN7C (natural protein)
chain: MAALGEPVRLERDICRAIELLEKLQRSGEVPPQKLQALQRVLQSEFCNAVREVYEHVYETVDISSSPEVRANATAKATVAAFAASEGHSHPRVVELPKTEEGLGFNIMGGKEQNSPIYISRIIPGGIADRHGGLKRGDQLLSVNGVSVEGEHHEKAVELLKAAQGKVKLVVRYTPKVLEEMESRFEKMRSAKRRQQT

Kd [2]: 10.5 µM
B2: CASK (natural protein)
chain: MADDDVLFEDVYELCEVIGKGPFSVVRRCINRETGQQFAVKIVDVAKFTSSPGLSTEDLKREASICHMLKHPHIVELLETYSSDGMLYMVFEFMDGADLCFEIVKRADAGFVYSEAVASHYMRQILEALRYCHDNNIIHRDVKPHCVLLASKENSAPVKLGGFGVAIQLGESGLVAGGRVGTPHFMAPEVVKREPYGKPVDVWGCGVILFILLSGCLPFYGTKERLFEGIIKGKYKMNPRQWSHISESAKDLVRRMLMLDPAERITVYEALNHPWLKERDRYAYKIHLPETVEQLRKFNARRKLKGAVLAAVSSHKFNSFYGDPPEELPDFSEDPTSSGLLAAERAVSQVLDSLEEIHALTDCSEKDLDFLHSVFQDQHLHTLLDLYDKINTKSSPQIRNPPSDAVQRAKEVLEEISCYPENNDAKELKRILTQPHFMALLQTHDVVAHEVYSDEALRVTPPPTSPYLNGDSPESANGDMDMENVTRVRLVQFQKNTDEPMGITLKMNELNHCIVARIMHGGMIHRQGTLHVGDEIREINGISVANQTVEQLQKMLREMRGSITFKIVPSYRTQSSSCERDSPSTSRQSPANGHSSTNNSVSDLPSTTQPKGRQIYVRAQFEYDPAKDDLIPCKEAGIRFRVGDIIQIISKDDHNWWQGKLENSKNGTAGLIPSPELQEWRVACIAMEKTKQEQQASCTWFGKKKKQYKDKYLAKHNAVFDQLDLVTYEEVVKLPAFKRKTLVLLGAHGVGRRHIKNTLITKHPDRFAYPIPHTTRPPKKDEENGKNYYFVSHDQMMQDISNNEYLEYGSHEDAMYGTKLETIRKIHEQGLIAILDVEPQALKVLRTAEFAPFVVFIAAPTITPGLNEDESLQRLQKESDILQRTYAHYFDLTIINNEIDETIRHLEEAVELVCTAPQWVPVSWVY

Continued, binder first:

B3: MAGI3 (natural protein)
chain: MSKTLKKKKHWLSKVQECAVSWAGPPGDFGAEIRGGAERGEFPYLGRLREEPGGGTCCVVSGKAPSPGDVLLEVNGTPVSGLTNRDTLAVIRHFREPIRLKTVKPGKVINKDLRHYLSLQFQKGSIDHKLQQVIRDNLYLRTIPCTTRAPRDGEVPGVDYNFISVEQFKALEESGALLESGTYDGNFYGTPKPPAEPSPFQPDPVDQVLFDNEFDAESQRKRTTSVSKMERMDSSLPEEEEDEDKEAINGSGNAENRERHSESSDWMKTVPSYNQTNSSMDFRNYMMRDETLEPLPKNWEMAYTDTGMIYFIDHNTKTTTWLDPRLCKKAKAPEDCEDGELPYGWEKIEDPQYGTYYVDHLNQKTQFENPVEEAKRKKQLGQVEIGSSKPDMEKSHFTRDPSQLKGVLVRASLKKSTMGFGFTIIGGDRPDEFLQVKNVLKDGPAAQDGKIAPGDVIVDINGNCVLGHTHADVVQMFQLVPVNQYVNLTLCRGYPLPDDSEDPVVDIVAATPVINGQSLTKGETCMNPQDFKPGAMVLEQNGKSGHTLTGDGLNGPSDASEQRVSMASSGSSQPELVTIPLIKGPKGFGFAIADSPTGQKVKMILDSQWCQGLQKGDIIKEIYHQNVQNLTHLQVVEVLKQFPVGADVPLLILRGGPPSPTKTAKMKTDKKENAGSLEAINEPIPQPMPFPPSIIRSGSPKLDPSEVYLKSKTLYEDKPPNTKDLDVFLRKQESGFGFRVLGGDGPDQSIYIGAIIPLGAAEKDGRLRAADELMCIDGIPVKGKSHKQVLDLMTTAARNGHVLLTVRRKIFYGEKQPEDDSSQAFISTQNGSPRLNRAEVPARPAPQEPYDVVLQRKENEGFGFVILTSKNKPPPGVIPHKIGRVIEGSPADRCGKLKVGDHISAVNGQSIVELSHDNIVQLIKDAGVTVTLTVIAEEEHHGPPSGTNSARQSPALQHRPMGQSQANHIPGDRSALEGEIGKDVSTSYRHSWSDHKHLAQPDTAVISVVGSRHNQNLGCYPVELERGPRGFGFSLRGGKEYNMGLFILRLAEDGPAIKDGRIHVGDQIVEINGEPTQGITHTRAIELIQAGGNKVLLLLRPGTGLIPDHGDWDINNPSSSNVIYDEQSPLPPSSHFASIFEESHVPVIEESLRVQICEKAEELKDIVPEKKSTLNENQPEIKHQSLLQKNVSKRDPPSSHGHSNKKNLLKVENGVTRRGRSVSPKKPASQHSEEHLDKIPSPLKNNPKRRPRDQSLSPSKGENKSCQVSTRAGSGQDQCRKSRGRSASPKKQQKIEGSKAPSNAEAKLLEGKSRRIAGYTGSNAEQIPDGKEKSDVIRKDAKQNQLEKSRTRSPEKKIKRMVEKSLPSKMTNKTTSKEVSENEKGKKVTTGETSSSNDKIGENVQLSEKRLKQEPEEKVVSNKTEDHKGKELEAADKNKETGRFKPESSSPVKKTLITPGPWKVPSGNKVTGTIGMAEKRQ
Kd [3]: 1.95 µM

B4: SYNJ2BP (natural protein)
chain: MNGRVDYLVTEEEINLTRGPSGLGFNIVGGTDQQYVSNDSGIYVSRIKENGAAALDGRLQEGDKILSVNGQDLKNLLHQDAVDLFRNAGYAVSLRVQHRLQVQNGPIGHRGEGDPSGIPIFMVLVPVFALTMVAAWAFMRYRQQL
Kd [4]: 11 µM
